Source: patent US10081667B2, “Composition and method for therapeutic agent delivery during pregnancy” (University of Mississippi Medical Center, priority 2013, dated 2018)
Where two headings read alike, the source gives them in different places.

What was measured:
trophoblast cells = conditions: rat, in vivo
[1] = Biodistribution of fluorescently labeled ELP / SynB1-ELP in pregnant rats after IV bolus (ex vivo imaging, frozen sections); parameters: species or system Sprague Dawley rats
Description: FIG. 2 includes a series of images and a graph showing the biodistribution of ELP in pregnant rats. FIG. 2A. The ELP drug carrier was labeled with AlexalFluor633 and infused into normal pregnant Sprague Dawley rats by IV injection (100 mg/kg). 4 h after injection, ex vivo images of placentas, pups, and major organs were collected using an IVIS Spectrum. FIG. 2B. Fluorescence intensity was quantified in all tissues. Error bars represent the standard deviation of 3 rats.
FIG. 3 includes a series of images and a graph illustrating placental distribution of ELP and SynB1-ELP. FIG. 3A. After IV administration of fluorescently-labeled polypeptides or saline control, placentas, pups, and major organs were removed and imaged ex vivo using an IVIS Spectrum. Polypeptide deposition in placentas and pups is shown. FIG. 3B. Fluorescence levels in placentas, pups, and major organs was quantified using Living Image software. Error bars represent the standard deviation of four rats per treatment group. FIG. 3C. Frozen sections of intact placentas and pups were cut, stained with the actin-specific rhodamine-phalloidin to allow visualization of the placenta and pups, and scanned using a florescence slide scanner. FIG. 3D. The same slides were imaged using a florescence microscope to visualize the cellular localization of the polypeptides in the placenta (100× magnification).
Pregnant Sprague Dawley rats on day 14 of gestation were injected with fluorescently labeled ELP (100 mg/kg IV). […] Placentas and pups were dissected from the amniotic sacks and imaged ex vivo using an IVIS Spectrum animal imager to detect and quantitate the ELP levels. […] In contrast, almost no ELP was detectable in the pups. The image intensities of the placentas, pups, and major organs were quantitated using Living Image software, and the results are shown in FIG. 2B. […] These high ELP levels in the placenta are unprecedented with this molecule. By way of comparison, the placenta levels are 2 to 10 fold higher than the tumors levels (Bidwell G L, et al., PloS One, 2013; Bidwell G L, 3rd, Cancer Lett., 2012).
This example also examined whether the addition of a CPP to ELP would affect its penetration across the placenta. SynB1-ELP was labeled with Alexa633 and injected as described above. For comparison, animals were injected with saline control or ELP-Alexa633 at an equivalent dose. Four hours after injection, placental, fetal, and organ levels were determined by ex vivo fluorescence imaging. […] In addition to the ex vivo fluorescence imaging, the fetal-amnio-placental complex was removed, rapidly frozen, and sectioned using a cryomicrotome. Tissue sections were stained with the actin-specific rhodamine-phalloidin to allow visualization of all tissue and imaged directly using a fluorescence slide scanner. […] The intraplacental distribution SynB1-ELP-Alexa633 differed slightly from ELP-Alexa633. […] Both polypeptides could be detected within the cells of the placenta when examined microscopically (FIG. 3D).

[2] = Plasma levels and biodistribution after chronic infusion by IP minipump GD14-GD19; type: in vivo, rats
Description: FIG. 7 includes images and graphs showing plasma levels and biodistribution of FLPs after Chronic Infusion. FIG. 7A. Rhodamine-labeled ELP or SynB1-ELP was administered chronically by IP minipump from GD14-GD19. Plasma was sampled throughout the experiment, and polypeptide levels were determined relative to standards of the injected protein. Data represent the mean±s.d. of four rats per group. FIG. 7B. Ex vivo fluorescence imaging of eight pups and corresponding placentas from one rat from each group is shown. FIG. 7C. Fluorescence intensities were quantified, corrected for autofluorescence, and fit to standards of the injected proteins. Data represent the mean±s.e. of eight placentas and eight pups per rat and four rats per group. *Statistically significant as determined by a two-way ANOVA with post-hoc Bonferroni multiple comparisons (p<0.05). **Levels were not detectable over autofluorescence.
Whether the fetal exclusion held after five days of continuous infusion of the polypeptides is also examined. ELP or SynB1-ELP was administered continuously from GD14 to GD19 using an IP minipump. […] At the dose used (30 mg/kg/day), the plasma levels were maintained at 33.94 μg/mL for ELP and 69.15 μg/mL for SynB1-ELP. These plasma levels are a reflection of many in vivo kinetic processes, including the rate of transport from the peritoneal fluid to the blood, the rate of extravasation from the blood to the tissues, and the plasma clearance rate. […] These plasma concentration data also provide useful information for the formulation of dosages when ELP is fused with therapeutic agents.
Ex vivo whole organ fluorescence analysis of the placentas is performed, pups, and organs on GD19 following five days of continuous polypeptide infusion. Relative to the acute experiment, the placental levels of the polypeptides were lower, which resulted from the difference in dose (100 mg/kg in the bolus dosing versus 30 mg/kg/day in the chronic infusion). […] The kidneys still accumulated the most polypeptide, followed by the liver and the placenta (FIG. 7C). […]

[3] = rat, in vivo
[4] = rat, in vivo; remark: listed apart in the source

B1: ELP: elastin-like polypeptide drug carrier, repeats of VPGXG; unmodified carrier, fluorescently labeled for the tests (protein)
chain: VGVPGAGVPGGGVPGAGVPGGGVPGAGVPGGGVPGAGVPGGGVPGAGVPGGGVPGAGVPGGGVPGAGVPGGGVPGAGVPGVGVPGAGVPGGGVPGAGVPGGGVPGAGVPGGGVPGAGVPGGGVPGAGVPGGGVPGAGVPGGGVPGAGVPGGGVPGAGVPGVGVPGAGVPGGGVPGAGVPGGGVPGAGVPGGGVPGAGVPGGGVPGAGVPGGGVPGAGVPGGGVPGAGVPGGGVPGAGVPGVGVPGAGVPGGGVPGAGVPGGGVPGAGVPGGGVPGAGVPGGGVPGAGVPGGGVPGAGVPGGGVPGAGVPGGGVPGAGVPGVGVPGAGVPGGGVPGAGVPGGGVPGAGVPGGGVPGAGVPGGGVPGAGVPGGGVPGAGVPGGGVPGAGVPGGGVPGAGVPGVGVPGAGVPGGGVPGAGVPGGGVPGAGVPGGGVPGAGVPGGGVPGAGVPGGGVPGAGVPGGGVPGAGVPGGGVPGAGVPGVGVPGAGVPGGGVPGAGVPGGGVPGAGVPGGGVPGAGVPGGGVPGAGVPGGGVPGAGVPGGGVPGAGVPGGGVPGAGVPGVGVPGAGVPGGGVPGAGVPGGGVPGAGVPGGGVPGAGVPGGGVPGAGVPGGGVPGAGVPGGGVPGAGVPGGGVPGAGVPGGGVPGAGVPGGGVPGAGVPGGGVPGAGVPGGGVPGAGVPGGGVPGAGVPGGGVPGAGVPGGGVPGAGVPGGGVPGAGVPGVGVPGAGVPGGGVPGAGVPGGGVPGAGVPGGGVPGAGVPGGGVPGAGVPGGGVPGAGVPGGGVPGAGVPGGGVPGAGVPG
modifications: Alexa633 label; synthetic ELP
notes: elastin-like polypeptide drug carrier, repeats of VPGXG; unmodified carrier, fluorescently labeled for the tests
- accumulation in trophoblast cells (trophoblast cells): accumulated in the cytoplasm of trophoblast cells
- polypeptide in interior of chorionic villi (fetal blood) (trophoblast cells): contained no ELP or SynB1-ELP
- placental accumulation relative to other organs ([1]; 4 h after 100 mg/kg IV): nearly equivalent to levels in the liver
- level in pups, ex vivo fluorescence imaging ([1]; 4 h after 100 mg/kg IV, GD14): barely detectable over autofluorescence in the pups
- placental accumulation, ex vivo fluorescence imaging ([1]; 4 h after 100 mg/kg IV, GD14): accumulated strongly in the placenta
- placental accumulation, frozen sections, fluorescence slide scanner ([1]; 4 h after IV injection): accumulated at high levels in the placenta relative to autofluorescence controls
- polypeptide in pups, frozen sections, fluorescence slide scanner ([1]; 4 h after IV injection): no polypeptide was detectable in the pups
- intraplacental distribution ([1]; frozen sections): accumulated at high levels throughout the placenta
- half-life ([1]; pregnant rats GD14, 100 mg/kg IV): Four hours after injection, which is about one half-life
- steady state plasma level ([2]; 30 mg/kg/day IP minipump GD14-GD19): 33.94 µg/mL
- placental accumulation ([2]; GD19, five days continuous infusion): accumulated at high levels in the placenta
- level in pups ([2]; GD19, five days continuous infusion, 30 mg/kg/day): undetectable over autofluorescence in the pups
- total signal in degraded bands <50 kDa [3]: less than 20%
- level in pups [4]: Neither peptide was detectable in the pups
